T1: GST-PIL15 (Oryza sativa, UniProt Q0JNI9 1-637)
T1 sequence: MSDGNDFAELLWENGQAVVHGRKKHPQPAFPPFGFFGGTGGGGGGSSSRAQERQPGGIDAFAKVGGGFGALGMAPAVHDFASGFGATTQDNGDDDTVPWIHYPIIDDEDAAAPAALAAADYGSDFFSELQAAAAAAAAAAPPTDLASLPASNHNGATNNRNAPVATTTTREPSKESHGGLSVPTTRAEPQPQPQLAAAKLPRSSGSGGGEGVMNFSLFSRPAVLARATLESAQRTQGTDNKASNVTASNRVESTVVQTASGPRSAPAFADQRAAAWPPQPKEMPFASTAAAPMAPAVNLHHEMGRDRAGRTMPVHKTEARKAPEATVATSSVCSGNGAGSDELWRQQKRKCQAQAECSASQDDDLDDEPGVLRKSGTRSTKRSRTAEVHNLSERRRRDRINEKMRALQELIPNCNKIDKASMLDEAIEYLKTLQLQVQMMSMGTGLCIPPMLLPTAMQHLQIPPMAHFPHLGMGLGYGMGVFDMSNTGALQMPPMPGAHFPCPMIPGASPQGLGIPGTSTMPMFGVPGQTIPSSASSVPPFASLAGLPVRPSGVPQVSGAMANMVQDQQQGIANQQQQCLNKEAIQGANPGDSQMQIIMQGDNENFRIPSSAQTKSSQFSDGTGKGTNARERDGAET

B1: pAMT1;2-PBE (dsDNA)
DNA 1: ACCAAAACACATGAAATCCT
DNA 2: AGGATTTCATGTGTTTTGGT
B2: pNRT1.1B-PBE (dsDNA)
DNA 1: ACACACACATGTGTTGTAAT
DNA 2: ATTACAACACATGTGTGTGT
B3: pDEP1-PBE (dsDNA)
DNA 1: GATGCACACATGAAGATCGT
DNA 2: ACGATCTTCATGTGTGCATC

Target: T1, GST-PIL15
Experiment: EMSA; Chemiluminescent EMSA kit (Thermo Fisher); buffer, salt, pH and temperature not stated
Conditions: protein: recombinant; tags: N-terminal GST (pGEX-5X-1); chain copies: 2; label: biotin (ends); blunt

Binder	binding result
B1	binds
B2	binds
B3	binds
